According to article PMC8561297:

Columns and labels:
[1] = target: von Willebrand factor (human (endogenous in whole blood)) (UniProt P04275)
[2] = target: von Willebrand factor (human (endogenous in whole blood)) (UniProt P04275); remark: listed apart in the source

platelet GPIbα (from UniProt P07359 17-652) (receptor)
share of slow-rolling platelets at constant shear [1]: 36%
share of slow-rolling platelets at shear rate gradient [1]: 52.9%
platelet adhesion at the stenosis apex, control (platelets/mm^2) [2]: 3930
platelet adhesion in the stenosis outlet, control (platelets/mm^2) [2]: 5040
platelet rolling velocity at the stenosis apex, control [2]: 4.41 μm s^-1
platelet rolling velocity at the stenosis apex, with scFv A1 [2]: 4.6 μm s^-1
